Measured values as given in patent US20120322150A1 (CARNEGIE INSTITUTION OF WASHINGTON, published 2012).
Each block holds one binder with its values, some of them ahead of it.

Key:
[1] = biological target: T1, nYFP-AtSK12 (Arabidopsis, UniProt P43289 1-409); assay: BiFC in Arabidopsis seedlings, epidermal cells
T1 construct: BiFC construct in transgenic Arabidopsis; not shown: N-terminal half of YFP (nYFP)
T1 sequence (looked up): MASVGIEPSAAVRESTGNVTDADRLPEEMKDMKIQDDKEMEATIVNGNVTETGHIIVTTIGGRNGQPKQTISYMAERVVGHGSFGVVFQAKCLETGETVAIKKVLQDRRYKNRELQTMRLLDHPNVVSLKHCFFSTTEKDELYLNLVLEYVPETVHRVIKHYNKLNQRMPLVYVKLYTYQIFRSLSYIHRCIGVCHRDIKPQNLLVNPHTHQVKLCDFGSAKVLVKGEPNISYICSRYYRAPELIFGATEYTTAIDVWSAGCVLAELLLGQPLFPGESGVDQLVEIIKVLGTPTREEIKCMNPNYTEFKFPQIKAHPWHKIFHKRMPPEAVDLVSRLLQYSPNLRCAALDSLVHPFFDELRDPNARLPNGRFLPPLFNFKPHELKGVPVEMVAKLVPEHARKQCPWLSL
Procedure: (§1) FIGS. 5A-5G show regulation of the BIN2 homolog, AtSK12 BSU1-mediated tyrosine dephosphorylation. […] Activation domain (AD) fused AtSKs were transformed into the cells containing DNA binding domain (BD) fused BZR1. Yeast clones were grown on Synthetic Dropout (SD) or SD-Histidine medium. […] Transgenic Arabidopsis plants expressing nYFP-BIN2, nYFP-AtSK12 and nYFP-AtSK12-cd (C-terminal 29 amino acid deletion) were crossed to BZR1-cYFP plants, respectively. The seedlings of F1 generation were grown in white light for 7 days and YFP signals of epidermal cells were observed. […] GST-AtSK12 was incubated with MBP-BZR1 and ³²P-γATP. CBB indicates Coomassie brilliant blue-stained gel. […] Homozygous plants expressing AtSK12-myc were treated with 0.25 MM BL for 30 min. Proteins immunoprecipitated by anti-myc antibodies were blotted onto nitrocellulose membrane and probed by anti-myc antibody. […] (h) BR induces pTyr dephosphorylation of AtSK12. Homozygous AtSK12-myc plants were pretreated with 10 μM MG132 and then treated with 0.25 μM BL (+BL) or mock solution (−BL). […]
(§2) Transformation by Agrobacterium infiltration, observations of subcellular localization and BiFC signal in tobacco or Arabidopsis were performed as described previously 5. Fluorescence of YFP was visualized by using a spinning-disk confocal microscope (Leica Microsystems, Heerbruag, Germany).

[2] = biological target: T2, nYFP-BIN2 (Arabidopsis, UniProt Q39011 1-380); assay: BiFC in Arabidopsis seedlings, epidermal cells
T2 construct: BiFC construct in transgenic Arabidopsis, crossed to BZR1-cYFP plants; not shown: N-terminal half of YFP (nYFP)
T2 sequence (looked up): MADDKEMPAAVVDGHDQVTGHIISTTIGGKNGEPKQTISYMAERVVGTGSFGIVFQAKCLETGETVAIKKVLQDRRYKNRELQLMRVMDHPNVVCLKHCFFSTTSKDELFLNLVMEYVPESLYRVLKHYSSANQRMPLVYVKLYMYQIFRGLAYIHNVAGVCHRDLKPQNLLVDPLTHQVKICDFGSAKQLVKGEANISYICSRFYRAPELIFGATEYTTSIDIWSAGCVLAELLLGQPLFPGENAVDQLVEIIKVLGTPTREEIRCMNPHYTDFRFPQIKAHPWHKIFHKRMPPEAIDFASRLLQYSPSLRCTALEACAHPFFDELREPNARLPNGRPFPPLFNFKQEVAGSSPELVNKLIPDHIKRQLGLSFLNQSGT
Procedure: as §1, §2

[3] = biological target: T3, MBP-BSU1 (Arabidopsis, UniProt Q9LR78 1-793); assay: overlay blot with MBP-BSU1 after incubation of GST-BSK1 with GST-BRI1-K
T3 construct: Recombinant fusion used as probe in overlay (far-western) blots and in phosphatase assays; also called BSU1 from E. coli
Procedure: Total protein extracts obtained from Arabidopsis plants (F1) expressing BSU1 -YFP or co-expressing BSU1-YFP and BSK1-myc were immunoprecipitated with anti-myc, and the immunoblot was probed with anti-GFP and anti-myc antibody. […] GST-BSK1 or GST-BSK1 S230A was incubated with GST-BRI1-K or GST for 2 hrs. […] In the presence of BR (+BR), BR binding to the extracellular domain of BRI1 induces dissociation of BKI1 and association and inter-activation between BRI1 and BAKI. Activated BRI1 then phosphorylates BSK1, which in turn dissociates from the receptor complex and interacts with and presumably activate BSU1. BSU1 inactivates BIN2 by dephosphorylating its pTyr200, allowing accumulation of unphosphorylated BZR1/2, likely with help of a phosphatase that is yet to be identified. Unphosphorylated BZR1/2 accumulate in the nucleus and alter the expression of BR-target genes, leading to cellular and developmental responses. While individual representative protein is shown for each function, in Arabidopsis most of these components have about 2 to 5 homologous proteins (paralogs) that can contribute to the same or similar signaling function.
To test interaction of BSU1 with BIN2 or bin2-1 in vitro, a gel blot separating GST, GST-BIN2, GSTbin2-1 was incubated with 20 μg MBP-BSU1 in 5% non-fat dry milk/PBS buffer and washed four times. The blot was then probed with a polyclonal anti-MBP antibody. […]

T3 sequence (Q9LR78 whole entry, the tested form may be a part): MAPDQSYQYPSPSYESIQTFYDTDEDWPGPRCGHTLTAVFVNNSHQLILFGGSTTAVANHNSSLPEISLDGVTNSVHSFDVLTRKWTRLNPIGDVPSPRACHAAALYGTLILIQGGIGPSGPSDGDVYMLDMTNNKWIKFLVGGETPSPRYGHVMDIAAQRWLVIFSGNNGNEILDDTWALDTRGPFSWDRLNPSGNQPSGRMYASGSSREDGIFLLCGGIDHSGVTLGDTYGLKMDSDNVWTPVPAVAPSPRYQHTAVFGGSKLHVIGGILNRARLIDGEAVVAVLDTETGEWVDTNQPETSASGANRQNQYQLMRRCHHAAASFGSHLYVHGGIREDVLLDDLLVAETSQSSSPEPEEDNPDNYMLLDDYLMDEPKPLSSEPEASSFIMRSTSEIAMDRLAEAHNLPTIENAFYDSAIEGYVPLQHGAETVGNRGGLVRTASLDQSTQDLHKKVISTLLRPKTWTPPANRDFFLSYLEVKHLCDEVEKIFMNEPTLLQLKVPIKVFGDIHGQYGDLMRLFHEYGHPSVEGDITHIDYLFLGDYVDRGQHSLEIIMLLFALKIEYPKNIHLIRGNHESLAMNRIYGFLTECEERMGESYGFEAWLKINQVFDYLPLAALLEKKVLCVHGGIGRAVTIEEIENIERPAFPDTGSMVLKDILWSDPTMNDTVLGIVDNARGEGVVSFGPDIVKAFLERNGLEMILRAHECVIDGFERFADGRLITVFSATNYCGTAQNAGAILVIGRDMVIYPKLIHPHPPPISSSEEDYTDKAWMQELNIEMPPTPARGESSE

binding result [1]: binds
binding result [2]: binds
B1: BZR1-cYFP (other, Arabidopsis, UniProt Q8S307 1-336, looked up)
chain: MTSDGATSTSAAAAAAAAAAARRKPSWRERENNRRRERRRRAVAAKIYTGLRAQGDYNLPKHCDNNEVLKALCVEAGWVVEEDGTTYRKGCKPLPGEIAGTSSRVTPYSSQNQSPLSSAFQSPIPSYQVSPSSSSFPSPSRGEPNNNMSSTFFPFLRNGGIPSSLPSLRISNSCPVTPPVSSPTSKNPKPLPNWESIAKQSMAIAKQSMASFNYPFYAVSAPASPTHRHQFHTPATIPECDESDSSTVDSGHWISFQKFAQQQPFSASMVPTSPTFNLVKPAPQQMSPNTAAFQEIGQSSEFKFENSQVKPWEGERIHDVGMEDLELTLGNGKARG
notes: BiFC construct in transgenic Arabidopsis; not shown: C-terminal half of YFP (cYFP)

binding result [3]: binds
B2: GST-BSK1 phosphorylated by GST-BRI1-K (enzyme, Arabidopsis, UniProt Q944A7 1-512, looked up)
chain: MGCCQSLFSGDNPLGKDGVQPQPLSQNNHGGATTADNGGSGGASGVGGGGGGGGIPSFSEFSFADLKAATNNFSSDNIVSESGEKAPNLVYKGRLQNRRWIAVKKFTKMAWPEPKQFAEEAWGVGKLRHNRLANLIGYCCDGDERLLVAEFMPNDTLAKHLFHWENQTIEWAMRLRVGYYIAEALDYCSTEGRPLYHDLNAYRVLFDEDGDPRLSCFGLMKNSRDGKSYSTNLAYTPPEYLRNGRVTPESVTYSFGTVLLDLLSGKHIPPSHALDMIRGKNIILLMDSHLEGKFSTEEATVVVELASQCLQYEPRERPNTKDLVATLAPLQTKSDVPSYVMLGIKKQEEAPSTPQRPLSPLGEACSRMDLTAIHQILVMTHYRDDEGTNELSFQEWTQQMKDMLDARKRGDQSFREKDFKTAIDCYSQFIDVGTMVSPTVFGRRSLCYLLCDQPDAALRDAMQAQCVYPDWPTAFYMQSVALAKLNMNTDAADMLNEAAQLEEKRQRGGRGS
modifications: phosphorylated by BRI1 kinase domain in vitro; phospho-Ser230 as the site named
notes: GST-BSK1 incubated with GST-BRI1-K and 100 uM ATP for 2 hrs before SDS-PAGE; also called phosphorylated BSK1; not shown: GST (glutathione S-transferase) tag
